We go through 17 sequences from a protein production outcome set (Wang et al. 2014).

The data set is described as follows: label from the status in PepcDB records.
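Also: failed if final PepcDB status was selected cloned or expressed and not failed if soluble or beyond.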

For the sequence “MDTEIHNPHIPGGRPPSRPAIAALTFVIFMSLTLASWSVVQDLQERHENTRFDKRVAEVIHKIEHHFSGYEQVLKGALGHLLASPSVSRNEWRTYVNALRINDRYPGIHGIGFAKYIPRSGLAAHTEEVRAEGFPSYKVWPGTPRQEYTSIIYLEPFTGSNLRAFGYDMFSNAVRRAAMSRARDTGEVALTRKVKLVQETGEDIQAGVLMYLPYYGAANLPKTVEERRASLGGYVYAPFRMVDFVRATLGSELDILDLRIFDGKAMAEDSLLFDSVKHRSGPSPVPKFKRVIPISLYGQTWALEASSRPAFEKAIKNYEALLVLLGGFVVSMLTAMVSFVLSGNKEKAAALGHVNKKLLLAMEEQQATTRELSNAKLRTERILESITDAFYTLDREWRFTYVNKEAENLLQRNREDLLGRVCWEEFKETAGTTFDREYHRALMENRTVTFEEFYVPLDEWFEVHAYPSEEGLTVYFRDITERKESEQARQEAHVRIRQQASLLDKATDAIIVFGMDNCIEFWNQGAERLYGWTSEEVMGREVEMLYDNVAVFDEANRALLSSGEWRGELAQRRRDQSMLNVEAHWTLVRNDDGEPQAIFAINTDITQRKSAENEILHLALYDSLTGLPNRRLLLDRLGHALAVSARNQRMGALLFIDLDNFKLLNDTLGHDMGDLLLRQVAPRLSSCVRESDTVARLGGDEFVVILMGDFGEDHDEALTQISTICERIRSAFIQPFNLDPYIHHITPSIGIALFNDQSQTTNELLKRADLAMYQAKASGRNAMRFFDPDMQAAMNARAILESELYKSWERNEFILHYQLQVDSRGIIGAEALVRWQHPRRGLLPPSEFIPQAEETGLILPLGEWVLETACNQLASWALQPETVQLNLSVNVSSLQFCQPDFVEQVISILDRTGANPQRLKLELTESILVHDMDDTIAKMMTLKARGVGFALDDFGIGYSSLYYLKRLPLDWVKIDRSFVRDVLTDNNDATIVRTILLLAKSMGLAVIAEGVETGAQKDFLASHGCTAYQGYLFSRPLPLEQFERFVQPAAGGAV”, the protein production result is listed as “failed”. With “MDTKKIKTSCLINNYNYAAFLSEAVASTLRQTVKFDEIIIVDDASTDNSAEVIAKFAQQADIKYILKEKNQGQLSSFNEAFLNASGDIIFFLDADDAYEPEYLETVLNFYNRRSECDFVFCAYKKFGAVEGTFQDYEIDVDLGYSVIRTLCNGEWIGSITSTLSMRRDILRKVLPIPNTEDWRVRADDCLVWGASLVGAKKFYLSQPLVRYRIHQNNQFHNSKFVNTDKDYEYKRFWKRNSLFNYILQKNNLELPFLLAFTSLNELKTIPCPNNQDFISYLKIIFLFEKNVYWKIKGIFLLFNYLGKFLLNGKLQIR”, the protein production result was “failed”. In the case of “MDTLPHHLLDEILFRIDHRSLAMIQCTNRSLQSHISKTPNFASEYFSRIRSSLLYIATHGCPLICYHLYGDSRSPRTVETLTQCHILGYCSGLLLLFLNKNLCVANPLTKKFRFLNHSRSKFFPTDFTLRGGRQQVIGFAVDQTDRTTPSFKIVNIKEGAVHWLRNDGSIVAFNLKTEKARLIPIRFPKELCLKTLFTAVDNNLTLISATEEVIYVYAFHNILSDPKWVLVKQIRNGVLDEKRLYSWYVEAYDGKSLVLRETILKKDYYNKHLKQVLHGYDLRANKWEVIGSIPEWSPSGLDFYQFTPSPSSVIGLDDKEGEEILACDDKRIPSVNAIMRLIYGIS” it was “failed”; in that of “MDTNYKMLYEKYEKLKNEFSTYQNFAETQIQRMNGKNTELEKKLDILTNVIEVSKYINSNISDDNLVPMINDMIIGILGVTYSTIYLVEDDEKLIVKASNVMDNYDIIVNPVFSTFSDNRPIVINSKEPLFKEFKNKLKVHSIIGVPITLRDNFRGYIIVEHTLYDFFSHGHIKFISSIANQIAIAIENSFLYKKVKESSIKDPFLGIYNRKHFFDMIEGKVAKDSRRSFAIVMLDIDHFKSFNDSYGHQFGDEVLIQTAKILEQSIGEKDEVARYGGEEIVLYLNDAQSKEKVFKTVDGIRASLSNNSVRHGGIEKRVTASFGISYYPQNGETVEKVVSVADAMLYEAKNSGRNKVVSSL”, “failed”. Consider “MDTQNLPDQIIPIFMSFDKNYALGASVSLYSLLSHASRHTSMIDFSPLNQSNKLLGANIVYKIHCLVKGVTLEQQNKLLKTIAPFKKFASLEFIHINSLDHSIESYLNKSCSKRYGGLLVLCRLLLASLFPNYSKIISIDADTVFLGDVASAYFALDNDPTKSLGMVRDTFSHLSFEAFCDFCKRACKNFKIDFSRFSPDELKRIHQGFNMGFLVAHLDRWRQDGFEKTALEFLKTRGKDLFYPEQCLVNMVFWERILELPIYYNCYSDFFKEHYPKNIIMLHFIKYKPWRSVSSLNGRLICYEAEASFWLANLFHTPFKNDFFKERLEMAKDQQMQSFKTHIRSQTIRNYLGFRVKNILKKVFKLSLEHHHHHH”, for which the protein production result is recorded as “not failed”. As to “MDTQTLNSDLRVFMHHIYEFEKGVRSMVLATLANDDIPYAEERLRSRQIPYFAQPTPNTERTNLFFGCKECMEAIRLFVSGRSLNSLTPEEDFIIGAMLGYDICRQCERYCRRKSNS”, the protein production entry is recorded as “not failed”. In the case of “MDTVILITVIIVIVGLAFDFINGFHDIANAVATSISTRALKPRVAIGIAAVMNFLGAISFTGVAESLTKSIVDPFSLNNGEFVVLCGLIAAVIWNLMTWLVGMPSSSSHALIGAIAGASIASASSFSVLNWSGFTTIIIALIISPIIGFTVGYLIYSLFKHLFHDKKLGKMNRRFRFIQIGTAAAQAYSHGTNDAQKTMGIITLALVASGLLKESAGIPFWVQVSCAASMAIGSSVGGYRIIKTVGTKIMKITPVTGVASDLSSLSVIMTATLIHLPVSTTQVIDSSIMGVGTANHKKEVNWRTGKNMVVTWFITLPLAGLLAAVVYWISAAIFL” it was “failed”.

In the case of “MDVFDGLPDPIIVDILNKVGDVKTLLRCSSLSKRFNSLVPQSESLTLRLDHSVSDSPVVTSIFRSLFNGLVSLLSKPAKPITITTLSPSLPFKILSRFDRIRNLDVELPGGDVKLEKGAAVKWKAEFGKTLKSCVIVAFRSAGTVSSPVAVEGESDAEFVTGLKTRVVWTISALMAASSRHYLMREVVKEHEEIESLVMRDKEREGTVVMNEEGLKELRNTEARVEDEERVVKNKRSVVPSVRMSMRHAPSLKLKSGICLESATLVIVRPSGADFEVGDDAELATEAFVGDCMYGEAVVALLKCKKNALEMNSF”, the protein production result is “failed”. “MDVGSFGFTIAGLVVGFIVGMTGVGGGSLMTPILLWFGIHPATAVGTDLLYAAITKASGVWVHARNKNIDWKITGLLSLGSVPAAALTLWFLSTLHTDTSALNAIIKQGLAVVLILTALAILFKSRLQAFASRHAGDHYHLSDRSLNILTVLTGVVLGIMVTLTSIGAGALGTVALFLLYPFLVTRRLVGTEIAHAVPLTLVAGLGHAGMGNMDWSLLGYLLLGSLPGIYLGSHLTGRISDRVLRPCLATMLLLIGYKLAF”: the protein production entry is recorded as “failed”. “MDVHQLTEQALALLLQHTGADGGAILIEVDGEIRVAASQGIGSAHTLANNDRVRSALRTERRHRVQLPEDLVVDGMLAQFRPKEVIIDPVRHKEVVLGAVVLASGQGFSAEDRNRLDVFERGLALALHNALLYDRLQTLAALDPLTGALEHHHHHH”: the protein production result is on record as “not failed”.

For the sequence “MDVLPLLLLVAGSAAVAGAARRTPVPAPLLLVAAGLIASYIPGVPEYTLDPEVVLPLVLPPLLYTAASDSSYLDLRAQLRPVALLSIGYVLFATLVVGWAAYLLVPGLPLPAALVLGAVVAPPDAVAATAVARRVGLPSRITTILQGESLVNDATAITAYKVALAAAVGEGATWAHGVGEFLLAAVGGVAVGLLLMVPLHWLRTHLKEALLQNTLSLLIPFVAYGLAEWAHASGVLAVVVVALYLGHRNYEVDFATRLQEEAVWKMVAFVLESAVFALIGLQLQVVLKGLGEYRGVDAAWYAVAVFLVVVLARFVWVYPATFLPRLLSARIREREENPTWKAPFIIGWAGMRGVVSLAIAFSIPLTVHGQGKGPFPGRNLILFLTFTTVIGTLVVQGLTLPPLIRLLRLPGRDAQAETLAEANAQAQASRVAELRLNDLLDDERNALPPPLADRLRDVLERRRNAVWERLGAVNPVTGESVDDTYRRLSREMIAAERSVFVRLRNGRYIDDEMLRTLLRRLDLEEAAAFREAT”, the protein production result is reported as “failed”. As for “MDVPSSWDALRKQARKIEAQLDEQMHSYRRLVSTKALSKSDGNESDLEAGIDLLLRQLQQVNAQMQAWVSSGGSEMVSHTLTRHQEILQDLTQEFYRHRSSLRAKQEHASLLEDFREFDRTRLDLEDGYGSEQALIKEHMGINRNTAQMDGVISQAQATLGTLVFQRSTFGGINSKLSNVASRLPTVNTILAAIKRKKSMDTIILSLVAAVCTFLIFIYWITK”, the protein production result was “failed”. As to “MDVQFAILAFTSLFSILNPFGVIPTYLVLTSQYSKVEKIKIIRKSMLAAFIILMMFALLGNQIIGFFGISIPAIKITGGVLLFLIALDMIQGNTSKVEKSPKLESHLKSHAEEIEEMDEIAIVPLTVPLLTGPGSISAVIAMMAQTSDFDGKISVIIAISLCIIISYFVLKFSKDLEKMLGKIGFKVLTKMMGLVLTAISIQMALDGILMVFG”, the protein production result is reported as “failed”. As for “MDWAQLLPSMKTRTGVATSPPPARSFYCHPSARKNPLHLHLITDAVARNILETLFRTWMVPAVVVSFYDAEELKPLVSWIPNNHYSGLYGLMKLVLPSILPPSLARVIVLDTDVTFSSDIVELWALFDHFSDKQVVGLVENQSDWYLGNLWKNHRPWPALGRGFNTGVILLWLDRLQQTGWEQMWKVTAKRELLTLMATSLADQDIFNAVIKEHPHLVHPLPCVWNVQLSDHTRAERCYLEAADLKVIHWNSPKKLRVKNKHAEFFRNLHLTFLGYDGKLLRRELFGCPNQFPPGAEQLQQALTQLDEEEPCFEFRQQQLTVHRVHITFLPHQPPPPQPHDVTLVAQLSMDRLQMLEALCRHWPGPMSLALYLTDEEAQQFLHFVETSPVLSMRKDVAYHVVYRDGPLYPVNQLRNVALAQALTPYVFLSDIDFLPAYSLYDYLRASIEQLELDSRRKTALVVPAFETLHYRFSFPNSKAELLTLLDAGSLHTFRYHEWPQGHSSTDYSRWREAQAPYSVQWSADYEPYVVVPRDCPRYDPRFVGFGWNKVAHIIELDAQEYEFLVLPEAFSIHLPHAPSLDISRFRSSPTYRNCLQALKEEFHQDLSRRYGSAALKYLTALQQARSRA”, the protein production result was “failed”. Turning to “MDWIESVKSYIKVVEEGSFNAAAYQLNTSGSAISKRINWLEERVGVQLLTRTTRSVHQTEAGLLFYQRARLQLDQWQHLVDETRAINQTPAGLLKIGATLAVGSKFIIKYLDEFLATYPKIKVQLITTLPGQVPEHNVDVFISRELEQLNTFSYKATHLFEHHSGFFASKDYLDKYGTPNNINELKAHNMLIWGERPIKEIKLTNNKRVTLRGNFATTNPEALFHAAKRGMGILLTSQQMVIDDLQSGALVPILPEITTDHTRVNAYYPTLDYEHTRTQLFIKYLKTKLS”, the protein production entry is recorded as “failed”. As to “MDWITLLRSLQSDFIKRLSSGCLLHCEIEGQYSELTVISGERLKTLRDFCWLMAEKYKRVSPVRDVFISYLKGKLGEEVVKERLADLITEVDYEKRLGGDGKIDFTLTANPAIGIEVKSRHGNIDRVRWSVSAEEVEKNAVVVCIFIKEDVNEAQSSYHLLLAGFLPTQMIKLKTGNISFGIEQLLYGGGLWGYLEQLQASANYHQFQQSPPIYQYKPQPELLSKINQTQSIKPALFTGIKNILPYRQQEAINIDYIKIGDECFAQGEYTASIKNYSQALQASSDNCELYYKRGLSYYQLGDYEAAIADYSQAININLHDAKSYHKRGLALSQLAAYEAAIDDYNQAIRINPHAASIYKNRAEARSHLGDNQGAIEDYTQAIKINPQYADTYKNRGISRYLLATQPGFTQAIKINPNDANAYKNRGNARADIGDYLGAIEDYNQAIQINPKAADAYYNRGNARYDLGDEEGAIADYTQAIQINPSYADAYYNRGNVRAGIKDKQGAIADFQKAADIYRKEGKLAELKDTTERVVELEIEESIDILNF”, the protein production entry is recorded as “failed”. In the case of “MDWKVFLLRVAVALVLGALIGAERQLRQRLTGLRTNALVSTGACLFVLMTQGVPGLAGDASRIAAYVVSGIGFLGGGVIMRDGLNVRGLNTAATLWCTAAIGVLCSMGLLLEATLGSLVVLCANILLRDIAQRLNRQDVLPASEAEQRYEVQIVCRAEDEIQVRSLMLHSLGSSDLRLQSLHSEDLDNPAKLEVRAELLGTPEAPAQLERLVSRVSLEKGVSSVRWQVFELAAD” it was “failed”.
